Laboratory results: paper doi:10.1101/495473v2

Tests used:
Assay in all cases: purified protein
Details in all cases: 5 mM MgCl2, 200 mM Tricine-NaOH pH 7.4, 37 °C
purified protein [1] = substrate: C[C@H](OP(=O)(O)O)C(=O)O
purified protein [2] = substrate: O=C(O)COP(=O)(O)O
purified protein [3] = substrate: O=P(O)(O)OC(CO)CO

B1: PbPGP (Plasmodium berghei ANKA) (protein)
chain: MSLIVSEASQNNYFKDSENSYNSFMKEWKIEKRVNVKDLYQNFEVFFFDCDGVLWRGDTVINGAIEVINKLISDNKKVYFITNNSTKSRDTLLGKFHKLGFTCVKKEHIICTSYAIAKYFHSKEEYKSRKKKIYVIGEKGICDELDALNLVWLGSYKDNDKKVIIQDEGEIQIDNNIGAVVVAIDFNINYYKIQYAQLCINGLDAEFIVSNKDPLANFTSNQQWAGTGSIVASIEQVSFKKPKVLGKPNLFMIESVLKSLNIDLSKVVMIGDRLDTDIFFAQNCKIKSILVSTGVTDANVFLNHNNLNIKPDYFMKSILEFL
With B1 the Km (purified protein [1]) was 4773 ± 574 µM, the kcat (purified protein [1]) was 67.34 ± 8.31 s⁻¹ and the Km (purified protein [2]) was 2526 ± 494 µM. It also gave a kcat (purified protein [2]) of 75.15 ± 7.86 s⁻¹, a Km (purified protein [3]) of 2110 ± 11 µM and a kcat (purified protein [3]) of 10.18 ± 0.08 s⁻¹.
